Source: patent publication US20140287419A1, “Compositions Having Dicamba Decarboxylase Activity and Methods of Use” (priority 2013, published 2014)

B1: 101 (protein, listed as Aquifex aeolicus)
chain: MAQKIALCITGASGVIYGIKLLQVLEELDFSVDLVISRNAKVVLKEEHSLTFEEVLKGLKNVRIHEENDFTSPLASGSRLVHYRGVYVVPCSTNTLSCIANGINKNLIHRVGEVALKERVPLVLLVREAPYNEIHLENMLKITRMGGVVVPASPAFYHKPQSIDDMINFVVGKLLDVLRIEHNLYKRWRG
B2: 97 (protein, listed as Sphingobium sp.)
chain: MAMMIIDCHGHYTVLPKAHDEWREQQKAAFKAGQPAPPYPEISDDEIRETIEANQLRLIKERGADMTIFSPRASAMAPHVGDQSVAVPWAQACNNLIARVVDLFPETFAGVCMLPQSPEADMTSSIAELERCVNELGFIGCNLNPDPGGGHFKHPPLTDRFWYPFYEKMVELDVPAMIHVSGSCNPAMHATGAYYLAADTIAFMQLLQGNLFADFPTLRFIIPHGGGAVPYHWGRFRGLADMLKQPSLDTLLMNNVFFDTCVYHQPGINLLADVIDNKNILFGSEMVGAVRGIDPTTGHYFDDTKRYIDALDISDQERHAIFEGNTRRVFPRLDAKLKARGL
B3: 102 (protein, listed as Lactobacillus plantarum)
chain: MATKTFKTLDDFLGTHFIYTYDNGWEYEWYAKNDHTVDYRIHGGMVAGRWVTDQKADIVMLTEGIYKISWTEPTGTDVALDFMPNEKKLHGTIFFPKWVEEHPEITVTYQNEHIDLMEQSREKYATYPKLVVPEFANITYMGDAGQNNEDVISEAPYKEMPNDIRNGKYFDQNYHRLNK
B4: 98 (protein)
chain: MAIIDCHGHYTTAPAAHDAFRKAQIAHHDDPQQPAPQYPHISDDALRESIEQHQLRLLRERGADMTIFSPRASTMAHHIGNEAVSQVWTQRCNDLIARVVQLYPHTFIGVCQLPQSPGVPISHSIAELERCVNELGFVGCNLNPDPSGGHWNGVPLTDRAWYPFFEKMVELDVPAMVHVSGSCNANFHATGAHYLNADTTAFMQFLEGDLFRDFPSLRFIIPHGGGAVPYHWGRFRGLADMLGKPPLATHVMRNVFFDTCVYHQPGIDLLFEVIDIDNILFGSEMVGAVRGIDPQTGHYFDDTKRYIDALTISDADKRKVFEGNARRVYPRLDAQLRARGL
modifications: Xanthomonas campestris pv.
B5: 99 (protein, listed as Ralstonia solanacearum)
chain: MAIIDCHGHFTTAPTALEDWRKRQIANLATPALGPSPDDLKISDDALTEAIRANQLRLMQARGSDLTIFSPRASFMAHHIGDFHTSATWAAICNALCHRVSQLFPDHFVGAAMLPQSPGVDIRTCIPELARCIVDYGFVGVNLNPDPSGGHWTSPPLSDPYWFPLYEKLVEYDVPAMIHVSTSCNACFHTTGAHYLNADTTAFMQVLTSDLFRRFPTLKFVIPHGGGAVPYHWGRFRGLAQELKTPPLQEHLLHNVFFDTCVYHQPGIDLLTRVIPVDNILFASEMIGAVRGIDPETGHPFDDTRRYIDQAHTLSAEDRHKIYEGNARRVYPRLDARLKARGR
B6: 8 (protein, listed as Metarhizium anisopliae)
chain: MARGKINFEEAFELPTLADSSREQAALYIAPKDLDRYIYHIKHPLGERLQLANSHGIGYTIYSLTVPGIQGIPDQSKAEQHATTVNDWIANEIKDHRDRLGAFAALSMHDAAQAAAELERCVRQHGFHGALLNNYQHAGPDGETYLFYDQPAYDVFWQKCVELDVPVYLHPAAPAGNYYKQMYAQRKYLVGPPLSFANDVSLHLLGLVTNGVFDRFPKLKVVVGHLGEHIPFDFWRISHWLEDVERPLAAGRGDVMSKKDLLYYFKNNIWVTTSGHFSTPTVRYVADYLGPERIMFSVDTPYETIENGVGWFDGEEDALTRALGGEDGYKKVARENAKKLFKLTKYHDCDA

Experiment: 14C assay with IPTG-induced recombinant E. coli cells (14CO2 capture from [14C]-carboxyl-labeled dicamba)
Conditions: IPTG-induced recombinant E. coli cells; [14C]-carboxyl-labeled dicamba; 14CO2 capture

| Molecule | Dicamba Decarboxylase Activity |
| --- | --- |
| B1 | No |
| B2 | No |
| B3 | No |
| B4 | No |
| B5 | No |
| B6 | Low |

Same assay, conditions: dicamba decarboxylation activity of the protein of the given SEQ ID NO

| Molecule | Enzymatic Detection level |
| --- | --- |
| B1 | No |
| B2 | No |
| B3 | No |
| B4 | No |
| B5 | No |
| B6 | Low |
